Data reported in the supplement of paper PMC7125110.
± gives the standard error. This sample holds only a part of the variants without activity.

B1: glmS ribozyme (parent)
chain: AUAAAAGCGCCAGAACUACAGAAAUGUAGUUGACGAGGAGGAGGUUUAUCGAAUUUUCGGCGGAUGCCUCCAAA

Tests used:
Conditions in all cases: with glucosamine-6-phosphate
glucosamine-6-phosphate [1] = variants of: B1; experiment: self-cleavage kobs at 640 uM GlcN6P; higher = faster cleavage; RNA array
In short: (§1)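 E. coli RNA polymerase transcribed barcoded ribozyme variants in situ on sequenced MiSeq chips, which were tracked via a hybridised Cy3 probe at 37 °C. Tiles were imaged over ~14 h after glucosamine-6-phosphate (40 μM to 10 mM) in HEPES/KCl/Mg(OAc)2 buffer was flowed in. Normalised per-tile medians were fit to one- or two-exponential decays for kobs, and kcat and KM came from weighted Michaelis–Menten fits.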

glucosamine-6-phosphate [2] = variants of: B1; experiment: self-cleavage kobs at 2500 uM GlcN6P; higher = faster cleavage; RNA array
In short: as §1

glucosamine-6-phosphate [3] = variants of: B1; experiment: self-cleavage kobs at 10000 uM GlcN6P; higher = faster cleavage; RNA array
In short: as §1

| Variant | self-cleavage kobs at 640 uM GlcN6P (glucosamine-6-phosphate [1]) [s⁻¹] | self-cleavage kobs at 2500 uM GlcN6P (glucosamine-6-phosphate [2]) [s⁻¹] | self-cleavage kobs at 10000 uM GlcN6P (glucosamine-6-phosphate [3]) [s⁻¹] |
| --- | --- | --- | --- |
| C8U G66C C71G | < 1e-05 | – | – |
| G9C U45A C68A | < 1e-05 | < 1e-05 | – |
| A6U G7C G13U A36C | < 1e-05 | – | – |
| G9A A14C A36G G37C A39U | < 1e-05 | – | – |
| G7A G38A G63U C70G | 0.000112 ± 3.6e-05 | – | – |
| C11U A42C U54C G59A G60A | < 1e-05 | < 1e-05 | – |
| A12G U46A | 6e-05 ± 1.9e-05 | 4.25e-05 ± 1.5e-05 | 0.000187 ± 4.1e-05 |
| C11A A12U A36C A48C G60U G62A | < 1e-05 | < 1e-05 | – |
| G9U A42G | < 1e-05 | – | – |
| G13C A48G U49C | < 1e-05 | – | – |
| A14C A15G G37C U49C | < 1e-05 | – | – |
| C11A A33G G63A G66U | < 1e-05 | – | – |
| C11A G59A C61G C70A | 0.000163 ± 7.6e-05 | – | – |
| A6U C11G A14C G41U | < 1e-05 | < 1e-05 | – |
| C11G A12C C70U | 6.11e-05 ± 2.5e-05 | 8.42e-05 ± 2.9e-05 | – |
| A12C G32A A64G C71A | < 1e-05 | – | – |
| C11A U31A G60A | < 1e-05 | – | – |
| G13C A15C A52U G66C | < 1e-05 | – | – |
| C11G G41C U45G | < 1e-05 | – | – |
| G7C C8U | < 1e-05 | – | – |
| C11A U30C A53C C71U | < 1e-05 | – | – |
| G9C U65A C68G | 0.000522 ± 0.00017 | – | 6.3e-05 ± 2.2e-05 |
| G7A A42C A52G U55A | < 1e-05 | < 1e-05 | – |

| Variant | self-cleavage kobs at 640 uM GlcN6P (glucosamine-6-phosphate [1]) [s⁻¹] | self-cleavage kobs at 2500 uM GlcN6P (glucosamine-6-phosphate [2]) [s⁻¹] | self-cleavage kobs at 10000 uM GlcN6P (glucosamine-6-phosphate [3]) [s⁻¹] |
| --- | --- | --- | --- |
| A12U G32A A52U U54C C61G G63U C71A | < 1e-05 | < 1e-05 | – |
| C11U U30G U31C | 9.28e-05 ± 2.1e-05 | – | – |
| A14C U49G C68U | < 1e-05 | – | – |
| C11U A36U G44C G62U | < 1e-05 | – | – |
| G7C A14C A52U | < 1e-05 | < 1e-05 | – |
| G9A G44C C68U U69A | < 1e-05 | – | – |
| C11A C16G A42U U56G C71U | < 1e-05 | < 1e-05 | – |
| A12G A14U A42U U54A C70G | < 1e-05 | – | – |
| C10G A15G A39U G60C C68A | < 1e-05 | < 1e-05 | – |
| G9C C10U G13U | < 1e-05 | – | – |
| C11U G60A | < 1e-05 | < 1e-05 | < 1e-05 |
| C10U C61A C67G C71G | 0.000112 ± 3.5e-05 | 7.34e-05 ± 2.4e-05 | – |
| A12U C68A | 7.24e-05 ± 3.4e-05 | 2.89e-05 ± 1.2e-05 | – |
| A12U A42G C70G | 0.000705 ± 0.00032 | 0.00109 ± 0.00041 | – |
| G9U A15C | < 1e-05 | – | < 1e-05 |
| G9C G63U G66A C68A C71A | < 1e-05 | < 1e-05 | – |
| G7C G9C | < 1e-05 | < 1e-05 | – |
| G7A G40A A42C C67G | < 1e-05 | < 1e-05 | – |
| G9U A12G A14C A53C | < 1e-05 | < 1e-05 | – |
| A14C A15G U69A | 9.09e-05 ± 2.4e-05 | 0.000115 ± 2.7e-05 | – |
| C8G C61U C68U | < 1e-05 | < 1e-05 | – |
| A6U C10G A53C G62U | < 1e-05 | < 1e-05 | – |
| G13A A15U G35U G40C | < 1e-05 | – | – |

| Variant | self-cleavage kobs at 640 uM GlcN6P (glucosamine-6-phosphate [1]) [s⁻¹] | self-cleavage kobs at 2500 uM GlcN6P (glucosamine-6-phosphate [2]) [s⁻¹] | self-cleavage kobs at 10000 uM GlcN6P (glucosamine-6-phosphate [3]) [s⁻¹] |
| --- | --- | --- | --- |
| A12C U56G G66U | 0.000122 ± 2e-05 | 0.000363 ± 8e-05 | – |
| A12C U47A C50A U55A C58U A64G | < 1e-05 | – | – |
| C8G C10A G38U A52G | < 1e-05 | < 1e-05 | – |
| G7U A53U U65G | < 1e-05 | < 1e-05 | – |
| A6U A33G U54A | < 1e-05 | – | – |
| G9C U65C C68U | < 1e-05 | – | – |
| A14C C58G C67U | 5.66e-05 ± 2.2e-05 | 5.98e-05 ± 1.9e-05 | – |
| C8U U54C U55G | < 1e-05 | – | – |
| G9U U56G U65C C67G | < 1e-05 | – | – |
| A14C C58A C67A C68G | 5.61e-05 ± 2.2e-05 | 4.77e-05 ± 1.6e-05 | – |
| C10G C11A C58G G63U C68A | 0.000138 ± 3.5e-05 | 0.000117 ± 3.3e-05 | – |
| C11U A14G A39C | 0.000206 ± 5.2e-05 | 0.000528 ± 0.00014 | – |
| A14C A39G C70U | 0.000886 ± 0.00029 | – | – |
| A6G G9U A64G | < 1e-05 | – | – |
| G9C G37C C70G | < 1e-05 | < 1e-05 | – |
| C8A C16A A39U G59U | < 1e-05 | – | – |
| G7U C70A | 0.000596 ± 0.00023 | – | – |
| G9U U55C G62U | < 1e-05 | – | – |
| G7C A12U A15C | < 1e-05 | – | – |
| C8A A36G A42U A53G | < 1e-05 | < 1e-05 | – |
| G13A G40A G62A | < 1e-05 | < 1e-05 | – |
